Experimental data taken from a protein production outcome set (Wang et al. 2014).

Assay: label from the status in PepcDB records
For “MTMKETFTLVATAAAGLEAVVGRELRELGYETQVENGKVRFQGDVRAIAETNLWLRAADRIKIVVGEFPARTFEELFQGVFALDWENYLPLGAKFPISKAKCVKSKLRNEPSVQAISKKAVVKKLQKYFHRPEGVPLQETGAEFKIEVSILKDKATVLIDTTGASLFKRGYRTDKGGAPIKENMAAAILELSNWYPDKPLIDPTCGSGTFCIEAAMIGMNIAPGFNRDFAFEAWNWVGKDLVQSVRDEADSKANYDVALDIMGCDIDSRMVEIAKANAREAGLEDVVKFKQMRLQDLKTDKINGVIISNPPYGERLLDDKAVDILYNEMGQTFAPLKTWSKFILTSDEQFESKYGMKADKKRKLYNGTLRVDLYQYFGERVRRSEARKVN”, the protein production was “failed”. For “MTMPIFNISDDVDLVPAMPAEGRDGGSYRRQIWQDDVENGTIVAVWMAEPGIYNYAGRDLEETFVVVEGEALYSQADADPVKIGPGSIVSIAKGVPSRLEILSSFRKLATVIPKP”, the protein production was “not failed”. For “MTMRRVKGGLVQAVRVARGGAVAWLSLCMLMVGGQALAQQAITAPASNAVERVEQASTGESTVVTVTLKDTPAQKPVEFSTQQPARIAIDFFGTAFAQGRANYQYGGKLLRAASVVQIGDRTRVVLDLARQSQYKSEIRGNQYVLTLGAAPTASATPVPTFAAPAPTAGVERPSVRNIDFRRGEELAGRVVVDLSTSNSAINIAQQGQNLVVDFAGATLPQSLRRRFDVSDFGTPVQAMRATDNGTGARLVIEPRGNWQYSSYQTDTQFVVEVRPTKEDPNKLISGPGYRGERMSLNFQNIDIRSLLQVFADFTNLNIVTSDSVTGTLSLRLKDVPWDQALQIVLDSKGLASRRNGNVLWVAPRNELATKEKAELESQQQVTELEPLRSQVFRLNYQRADDVRNMLLGTGGTAGGGAAASRILSKRGSLTSDARTNQLFVSDIPSKLEEVQAFLLKIDIPVRQVMIEARIVEADDTFSRNLGAKLGFAAKTNGAGYGNTYSNVVSPVTKDATWDNSAAVSLPANGINGVNAASVAVSLFNAGAGRFLALELSALEADGRGKIISSPRVVTADNIKALIEQGTEVPYQQATSSGATSVSFKKANLKLEVTPKITPDGNVFLDVDVNKDSLGTQTTNGFAINTKHVQTQVLVENGGTVVIGGIYTQNERTDVNKVPLLGDIPVLGNLFKSTAKTNDRTELLVFLTPRVLSDQLSLK”, the protein production was “failed”. With “MTMTLSAKDLENISKLAYLNEDSEHSAKLTQEVSAIMDFVDQLKTIDTSQIAPLFHPLALNQRLRPDEVTEAECLAELEAMAPLFEDNLYLVPKVISSDK” the protein production was “failed”. With “MTMTRTPLTQAAATLKARFREIGYTTSGINNVLGPDFVAAMHAGQPAAVRFHLDSLPESDLNLALRAFVLRDQVRVEKLAALLGEALKTLVDASLVEISGEYAQFLIDIRPHLIAGRQQWVFSDADASMTQHVPGPDHVLGVGAASLSLLQATPTSPTGSVLDLGTGSGIQVLGQAGAAQEIIATDVHPRALDFAEATLVDSGIPTQLVEGSWFEPVRGRTFDRIIANPPFVVGPPEIGHVYRDSGMDLDGATALVVKEACAHLNPGGTAHLLGAWVHSADQSWQQRVAEWLPDNGYVAWVIERDAVSPAQYVGTWLSDESLDLRSPEAAARTTAWLNHFEKAKVQGVGFGFIAIQRLEEDEADEKSDILAESMTQYFEDPLGPEIEEYFTRTAWLREQTRDSILSSRFKVRPGVAREQISLADAEEGMGFSPVTLRLTRTDGPRWSHDVDEHVASIVAGLNPHGLPFEEILEMYAMAQGIEGESLHNGAIAALVDLIRHGLVLPADLLDS” the protein production was “failed”. For “MTNAGTTDLSWLPSDADEQLALGFKIVTNAYKTRVTSQEAEIRSLKGQLTEKQEQLSSIQKKYSNLEVQLIESTQRGNQLADENKQLITTIKKLNRDIDRLENLKKAVLNSIQEEHDVEDAHKYYSADDLLQTTAPRTMLEMNGNEDSCQSIINKIVNSDTHNIINGSFNSPYIGNVPLGEKNTDGRAFFRNARSRLSYEQFNQFLSNIKKLNNHQQKREETLKKAQAIFGEANLDLYEEFKVLISKHS”, the protein production was “failed”. In the case of “MTNAIQDRLPRTTNSVEDTMALGARIAQGLSPGAVVALYGDLGTGKTHFVKGVAQGLGLPPAEVRSPTFTILAVHDDGDRPLYHFDAYRVQTPDEFVELGFETYVHGDGLTCIEWAGRVADLLPADTVPLQFHHVAPSTRRITLGAPLEHHHHHH”, the protein production was “not failed”. For “MTNDDSLKTYRAKRDFSVTPEPSGVASGKTAIKSTAKVLSFVVQKHWATRLHYDFRLELEGTMKSWAVPKGPSFDPNDKRMAVHVEDHPISYNSFEGEIPSGQYGAGKVIIWDKGTWIPLEDPHKGYRDGKLKFELRGLKLKGHWALVRMRKEENKKQEPWLLIKEKDEYVRSSREYSVVDEMPDSVAELDVPDVPQPSKASATSGSSSPKSSSIFRKGTKTTLPDNARKAELPRTLTPELATLVDEPPVDPEEWIYEIKFDGYRMLSRIEGGEVRLITRNGNDWSHKLPHLIKALGKLKLKSSWLDGEIAVLDENGIPDFQSLQNAFDSAHTESIIYYLFDVPFYEGYDLRDASLVERRALLQKLFEAHAPDEIRFSDVFDVSPAEILDSACRLGLEGVIGKRKTSVYVSRRSQDWIKLKCKNRQEFVIGGYTDPKGTRKGIGSLLLGYYDEDRKLRYAGNVGAGFSDKTLEDLRARLDRIALTDSPFVKANGLDKNAHWVEPRLIAEVSFGEWTRGGHIRHSVFHGLRSDKKADVIVREKPVHPAAKSAPASAIPKSLKVTNPDRVIDPSTGFTKVDLIRYYALVAPLMLPHLARRPVSLVRAPEGVSGELFFQKHWEKENMPGIEQLDPSLDPDHPPLLEVSTAEGLLSAVQMNVIEFHTWNATKNVIGKPDRIAFDLDPGSGVEWALIQESAQLVNVFLRELGLKSFLKTSGGKGLHIVVPIRRLRDWDTVKGFSQAIVQHLAKTIPTRFTAKSGPRNRVGKIFIDYLRNGFGATTVSAWSVRARPGLGVSVPLAWEELSSLKSSTRWSASNIHERLDKGNDPWADYAETNQSIVPAMKKLGFTPSSKA”, the protein production was “failed”. In the case of “MTNIQKRFYKGRVALNVLANNIENAKDIFEAAEGYVVVGVLSKDYPTVEEAVTAMKAYGKEIDDAVSIGLGAGDNRQAAVVAEIAKHYSGSHINQVFPSVGATRANLGGKDSWINSLVSPTGKVGYVNISTGPISAAGEEKAIVPIKTAIALVRDMGGNSLKYFPMKGLAHEEEYRAVAKACAEEGFALEPTGGIDKENFETILRIALEANVEQVIPHVYSSIIDKETGNTKTEDVRELLAVVKKLVDQYA”, the protein production was “not failed”. With “MTNKYIKLCFIDLVDLKKMSKQNLKIVLFHGFMAREHMQRHWLCYLKKLGYSDIHLYGHLSSAEMLAKQIHSTQNSAQKLVLFGYSQGGFQAVKVAQAFEQLQLPVDLLITIAAGGKGRLLPKQWHYNPRHIPQNVVKSLNFFSLSDSLGTDRCYRDNLIQASHHDQCIENIIFDQSAQVGHIELSRCYSKQRIHGLVKQHLISRIEYELSILE” the protein production was “failed”. For “MTNLLVIGATGNIGQPLIRDLQDDPDVHLFAGVHNSEHAKQALNGLKVQVRRFDFLDPATFEQALADIDKVFFVRPPQLAKPKEDMYPFLDALVARHVKQVVFVSLLGVAHNPMTPHHQIEKRIVELGLPYTFIRPSFFMQNLNTTHQADIVGHRDLFVPAGHARTSFIDTRDIGATAAVILRDPAYIGQKLDITGAQALTYADAAQIMTMELGVPITYSKPSLWRFRKVMLQRGLPKNYVNVMVMLYLITQLGNAKTVTTTLPNVLGRPAISFEQYVHDYRAEFLPKPLSLEHHHHHH”, the protein production was “failed”. In the case of “MTNNTDIKNQTNPMSGDLLRQIIRLGFPVAIQSALVAILALADVLMVSDFGKEATAAVGIASKWHFVAIMIMAGLASANGTLVAQYWGRNDAVSAKTVTGIAIRFGLKVLIPVTLIITLGSELIMRLQTSDTRVIELGATYLWYAFPVLLLTHIVIVLEASMRSSGDTVTPLLMGAMTIVLNIGLNFWLIKGGFGIPAMGVAGAAFATTISRLFQVLAMIAYMRWRKHWLLEVKEGSERPSLWLSYRRLALPMTLGALLWAIGTMVYQMIFGHMGTTELAVFSMLGPFESLCYSIFFGISVACSVMIGQSLGRDAFEQAEHMAKFFIKAVFVFGISIGALLLLNRELIIAALNLDNPELYPLAAPAVMILCCAIWLRMLNMIIINGIIRAGGDNVFCLRMDFIAMWMTGLPLCAIAAFVLGWEFKYVYALMIAEEVVKLALCYRRYTQKYWIKNLTVVTTS”, the protein production was “not failed”. With “MTNPLNSTAANRSNQPSSDGISDGQITNEEAESLINKKNCSGHKLKEVTDSDTFSDNGKDDSDTKKRFHYHQDQRRMSLTSIVAVESPSSSNAPSRKTIDLGHGSDLIYIQRFLPFQQSWTFFDYLDKHIPWTRPTIRVFGRSCLQPRDTCYVASSGLTALVYSGYRPTSYSWDDFPPLKEILDAIYKVLPGSRFNSLLLNRYKGASDYVAWHADDEKIYGPTPEIASVSFGCERDFVLKKKKDEESSQARNKPTFVWCEPAGKTGDSGPAKKRLKRSSREDQQSLTLKHGSLLVMRGYTQRDWIHSVPKRAKAEGTRINLTFRLVL” the protein production was “not failed”. For “MTNQDNNHQLNHRIYHFEKIYKAIKHVIVFIFMIFIAIVAIAVIAMSLYFHHLTKTSDSLSDDALIKKVRQIPGDELLDHNNKNLLYEYNHSQNSLIIGPKTSSPNVIKALTSSEDTLFYKHDGILPKAILRAMIQDIFNTDQSSGGSTITQQLVKNQVLTNEKTYSRKANELRLAIRLEHLLSKDEIIYTYLNIVPFGRDYNGANISGIASASYSLFGIPPKDLSIAQSAYLIGLLQSPYGYTPYEKDGTLKSDKDLKYSIQRQHYVLKRMLIEDQITEKEYNDALKYDIKSHLLNRKKR”, the protein production was “failed”. For “MTNQSHDDDDDDEQLPRSLFRLVSLPQKTMTNQTHDDDDDDEQLPLSLTLGSTSYSSQIRPVKSPVPIAPPPEFPGPVTTWPTPADFLATRSMVPDPPPPSHQIPLWMSNYFQQTPNPPQLVTHFFPPSGLAPPSSNLTPPPVKRPVTGSVRIYRSRSTVSKKSDTISPPFPWATNRRGEIQSLEYLESNQITTITGEVQCRHCEKVYQVSYNLRERFAEVVKFYLTEKRKMRDRAHKDWAYPEQRRCELCGREKAVKPVIAERKSQINWLFLLLGQTLGFCTLEQLKNFCKHSKNHRTGAKDRVLYLTYMGLCKMLQPKSDLFTCVAGKR”, the protein production was “failed”. For “MTNSGIILVASAALFWGLSGGIAGILINDDWNAVLVSFCRGAVGLIFVLMWLVLRPRNSGFTNGKLWLWSIIAGFGVSGNFAFYFFSISESSVAVAATLMYCAPIFVYLISFAIKIERPTLSKCAAILLVMAGVVLLTRVYQIDSSGITPIGVIAGLLSGMSLALFIFGFKYAARQGSPQAVLAIAFSTLTLALGTLIDIEEAGRVVNSADWPLFAILGVLGGGASFILYIIGLRRTLPALASIVATIEPVTAALFGVIILGEVLAYTQVLGMLIILATVTALGVYSSKQ”, the protein production was “failed”. In the case of “MTNSKQKLVLASGSPRRLELLHQIGIEPARLMPMDIDETPVKLEHPRTLCRRLSQQKAEAAQAALKSEQAWKDAYVLGSDTVVAVGRRIVGKAEYTEEASAALHLLSGRSHWVYTGICLVTPDGKIRQKVAETKVRFKRLSTREIDAYIASGQWRGKAGAYGIQGIAGAFVQKLTGSYTNVVGLPLYETMSLLSGEGFEVTSGWLEG”, the protein production was “failed”. For “MTNSNNRQSEYPVDPLFLDRWSPRAFDGSPMPKEHLLTILDAAHWAPSASNHQPWRFVYAHKDSEDWPLFVELLMEGNQKWAKNASVLLFVISRDHTISHEGEKKPSATHSFDAGAAWFSLAMQAHLLGYHAHGMGGIFKDRIVEKLDIPDGFKVEAGVAIGTLTDKSILPDDLAEREVPSKRVPLADVAFEGRFTGKAD”, the protein production was “not failed”. In the case of “MTNTIKKISTAQTYLNNNEIEKIIEVSKSLDLMASFYEADVFIDVLSKFDDEAIVVAHGRPKEKSMYCENVIGKKALIENEPGVIKCLKTGERVRDIKALTQEYKLVKQNIQPITLDDKVLAVLIVEKDISSEVKNEFNASEDEENKNLHQFIKLIGNNDFLVDNLNSAILIFDKNGKLKIKNRIATEIYKNLGFGYDIQDMHYNDLDIETNTFENILMDENYDETNEVSIGNMFFKIKTIYIKDDEFKVCKIVQDISDLKRKEEELVLKTVAIREAHHRVKNNLHTVISIIKKQSRLSQNDEVKQCLDNIINRVFAILSTHYLLSKEVDNNISIREGINLLVSNIQGGYLFSKDIDIRITGEDFKISGEKATAILLVINEILQNCYDHAFSDREHGTIQILINKDNDYRNIAIIDDGIGFDSNNINKNSLGTYIIDSYITQMLKGNIERKSSENGTEVLITIPTQINI”, the protein production was “failed”.
